Laboratory results: the supplement of paper PMC9112550, “Optimization of the antimicrobial peptide Bac7 by deep mutational scanning” (BMC Biology, 2022)

The sequences below were run on Escherichia coli TOP10 (assay: shrunken log2 fold change of peptide-encoding DNA abundance (4.5 h post-induction vs induction); higher = less antimicrobial activity (less host growth inhibition)). Conditions: time post-induction: 4.5 h; library: site-saturation at positions 5, 18, 19, 20.
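Further: peptides expressed intracellularly from a pBAD plasmid library in pooled LB shake-flask culture, induced with 0.3% L-arabinose, DNA abundance read by NGS, three biological replicates, DESeq2 with apeglm shrinkage.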

Sequence	shrunken log2 fold change
RRIRCRPPRLPRPRPRPIKLPRP	-0.63
RRIRCRPPRLPRPRPRPILRPRP	0.103
RRIRCRPPRLPRPRPRPIMEPRP	-0.231
RRIRCRPPRLPRPRPRPIQIPRP	-0.0558
RRIRCRPPRLPRPRPRPISWPRP	-0.105
RRIRCRPPRLPRPRPRPITMPRP	-0.309
RRIRCRPPRLPRPRPRPIVRPRP	-0.793
RRIRCRPPRLPRPRPRPIYAPRP	-0.281
RRIRCRPPRLPRPRPRPKCIPRP	-0.102
RRIRCRPPRLPRPRPRPKCSPRP	0.0495
RRIRCRPPRLPRPRPRPKDHPRP	0.0424
RRIRCRPPRLPRPRPRPKDTPRP	0.382
RRIRCRPPRLPRPRPRPKFCPRP	-0.0358
RRIRCRPPRLPRPRPRPKGGPRP	0.094
RRIRCRPPRLPRPRPRPKGQPRP	0.0213
RRIRCRPPRLPRPRPRPKHCPRP	-0.166
RRIRCRPPRLPRPRPRPKIWPRP	0.121
RRIRCRPPRLPRPRPRPKKCPRP	-0.186
RRIRCRPPRLPRPRPRPKKSPRP	-0.0331
RRIRCRPPRLPRPRPRPKKVPRP	-0.00128
RRIRCRPPRLPRPRPRPKLRPRP	0.564
RRIRCRPPRLPRPRPRPKMRPRP	-0.00909
RRIRCRPPRLPRPRPRPKPWPRP	0.275
RRIRCRPPRLPRPRPRPKQEPRP	0.0247
RRIRCRPPRLPRPRPRPKQPPRP	0.595

Sequence	shrunken log2 fold change
RRIRCRPPRLPRPRPRPKTYPRP	-0.48
RRIRCRPPRLPRPRPRPKVHPRP	-0.0287
RRIRCRPPRLPRPRPRPKWDPRP	0.13
RRIRCRPPRLPRPRPRPKYVPRP	-0.394
RRIRCRPPRLPRPRPRPLAQPRP	0.103
RRIRCRPPRLPRPRPRPLCSPRP	-0.399
RRIRCRPPRLPRPRPRPLCYPRP	-0.439
RRIRCRPPRLPRPRPRPLDKPRP	-0.328
RRIRCRPPRLPRPRPRPLEQPRP	0.0367
RRIRCRPPRLPRPRPRPLEVPRP	-0.174
RRIRCRPPRLPRPRPRPLFKPRP	-0.475
RRIRCRPPRLPRPRPRPLHVPRP	-0.178
RRIRCRPPRLPRPRPRPLKCPRP	-0.228
RRIRCRPPRLPRPRPRPLKHPRP	-0.584
RRIRCRPPRLPRPRPRPLMPPRP	-0.151
RRIRCRPPRLPRPRPRPLNRPRP	-0.413
RRIRCRPPRLPRPRPRPLNVPRP	-0.186
RRIRCRPPRLPRPRPRPLRYPRP	0.246
RRIRCRPPRLPRPRPRPLTNPRP	-0.454
RRIRCRPPRLPRPRPRPLTPPRP	0.292
RRIRCRPPRLPRPRPRPLTWPRP	-0.16
RRIRCRPPRLPRPRPRPLVDPRP	1.58
RRIRCRPPRLPRPRPRPLVQPRP	0.245
RRIRCRPPRLPRPRPRPLWAPRP	0.321
RRIRCRPPRLPRPRPRPLWRPRP	0.397

Sequence	shrunken log2 fold change
RRIRCRPPRLPRPRPRPLYFPRP	-0.836
RRIRCRPPRLPRPRPRPLYMPRP	-0.807
RRIRCRPPRLPRPRPRPMDCPRP	-0.0376
RRIRCRPPRLPRPRPRPMDMPRP	0.00534
RRIRCRPPRLPRPRPRPMDTPRP	0.0459
RRIRCRPPRLPRPRPRPMFYPRP	-0.525
RRIRCRPPRLPRPRPRPMHGPRP	0.0358
RRIRCRPPRLPRPRPRPMIAPRP	0.111
RRIRCRPPRLPRPRPRPMIPPRP	-0.231
RRIRCRPPRLPRPRPRPMISPRP	-0.235
RRIRCRPPRLPRPRPRPMKLPRP	-0.0356
RRIRCRPPRLPRPRPRPMMCPRP	0.0512
RRIRCRPPRLPRPRPRPMNTPRP	-0.727
RRIRCRPPRLPRPRPRPMPLPRP	-0.643
RRIRCRPPRLPRPRPRPMQPPRP	0.462
RRIRCRPPRLPRPRPRPMSDPRP	0.113
RRIRCRPPRLPRPRPRPMSSPRP	0.0481
RRIRCRPPRLPRPRPRPMTDPRP	-0.0858
RRIRCRPPRLPRPRPRPMTFPRP	-0.0603
RRIRCRPPRLPRPRPRPMVEPRP	0.237
RRIRCRPPRLPRPRPRPMWEPRP	-0.0554
RRIRCRPPRLPRPRPRPMWVPRP	0.121
RRIRCRPPRLPRPRPRPNANPRP	-0.353
RRIRCRPPRLPRPRPRPNEKPRP	-0.00225
RRIRCRPPRLPRPRPRPNENPRP	-0.0814

Sequence	shrunken log2 fold change
RRIRCRPPRLPRPRPRPNEQPRP	0.256
RRIRCRPPRLPRPRPRPNFFPRP	0.0889
RRIRCRPPRLPRPRPRPNFSPRP	-0.382
RRIRCRPPRLPRPRPRPNIMPRP	-0.896
RRIRCRPPRLPRPRPRPNKEPRP	-0.189
RRIRCRPPRLPRPRPRPNKKPRP	0.0294
RRIRCRPPRLPRPRPRPNKRPRP	-0.42
RRIRCRPPRLPRPRPRPNLIPRP	-0.872
RRIRCRPPRLPRPRPRPNLVPRP	-0.192
RRIRCRPPRLPRPRPRPNNAPRP	-0.799
RRIRCRPPRLPRPRPRPNNRPRP	-0.738
RRIRCRPPRLPRPRPRPNPFPRP	-0.024
RRIRCRPPRLPRPRPRPNPNPRP	-0.135
RRIRCRPPRLPRPRPRPNPSPRP	0.0638
RRIRCRPPRLPRPRPRPNQEPRP	-0.0562
RRIRCRPPRLPRPRPRPNQWPRP	-0.117
RRIRCRPPRLPRPRPRPNTKPRP	-0.358
RRIRCRPPRLPRPRPRPNVIPRP	-0.374
RRIRCRPPRLPRPRPRPNVKPRP	-0.482
RRIRCRPPRLPRPRPRPNWPPRP	0.0717
RRIRCRPPRLPRPRPRPNYNPRP	-0.986
RRIRCRPPRLPRPRPRPNYPPRP	-0.427
RRIRCRPPRLPRPRPRPNYVPRP	-0.304
RRIRCRPPRLPRPRPRPPDNPRP	0.0386
RRIRCRPPRLPRPRPRPPDQPRP	0.581

Sequence	shrunken log2 fold change
RRIRCRPPRLPRPRPRPPEAPRP	0.968
RRIRCRPPRLPRPRPRPPEQPRP	2.18
RRIRCRPPRLPRPRPRPPFVPRP	0.145
RRIRCRPPRLPRPRPRPPGHPRP	0.422
RRIRCRPPRLPRPRPRPPHWPRP	0.531
RRIRCRPPRLPRPRPRPPINPRP	-0.319
RRIRCRPPRLPRPRPRPPMTPRP	0.155
RRIRCRPPRLPRPRPRPPNWPRP	1.17
RRIRCRPPRLPRPRPRPPPEPRP	1.32
RRIRCRPPRLPRPRPRPPPYPRP	0.511
RRIRCRPPRLPRPRPRPPQLPRP	0.329
RRIRCRPPRLPRPRPRPPSAPRP	0.345
RRIRCRPPRLPRPRPRPPTPPRP	0.776
RRIRCRPPRLPRPRPRPPVAPRP	0.443
RRIRCRPPRLPRPRPRPPVGPRP	0.414
RRIRCRPPRLPRPRPRPPWGPRP	0.122
RRIRCRPPRLPRPRPRPPWHPRP	0.0193
RRIRCRPPRLPRPRPRPPWPPRP	0.54
RRIRCRPPRLPRPRPRPPYMPRP	-0.288
RRIRCRPPRLPRPRPRPPYPPRP	-0.193
RRIRCRPPRLPRPRPRPQAKPRP	0.31
RRIRCRPPRLPRPRPRPQCIPRP	-0.458
RRIRCRPPRLPRPRPRPQDEPRP	-0.0478
RRIRCRPPRLPRPRPRPQDIPRP	-0.213
RRIRCRPPRLPRPRPRPQELPRP	-0.212

Sequence	shrunken log2 fold change
RRIRCRPPRLPRPRPRPQFAPRP	-0.239
RRIRCRPPRLPRPRPRPQFCPRP	-0.187
RRIRCRPPRLPRPRPRPQFLPRP	-0.79
RRIRCRPPRLPRPRPRPQFMPRP	-0.59
RRIRCRPPRLPRPRPRPQGFPRP	-0.0235
RRIRCRPPRLPRPRPRPQGGPRP	-0.107
RRIRCRPPRLPRPRPRPQHEPRP	0.0354
RRIRCRPPRLPRPRPRPQHPPRP	-0.132
RRIRCRPPRLPRPRPRPQIDPRP	-0.0788
RRIRCRPPRLPRPRPRPQIFPRP	2.2
RRIRCRPPRLPRPRPRPQIKPRP	-0.762
RRIRCRPPRLPRPRPRPQKSPRP	-0.554
RRIRCRPPRLPRPRPRPQKVPRP	-0.127
RRIRCRPPRLPRPRPRPQLAPRP	0.163
RRIRCRPPRLPRPRPRPQLMPRP	0.285
RRIRCRPPRLPRPRPRPQMLPRP	0.0498
RRIRCRPPRLPRPRPRPQPAPRP	0.632
RRIRCRPPRLPRPRPRPQPSPRP	0.228
RRIRCRPPRLPRPRPRPQPTPRP	0.319
RRIRCRPPRLPRPRPRPQPVPRP	0.399
RRIRCRPPRLPRPRPRPQQCPRP	-0.219
RRIRCRPPRLPRPRPRPQQGPRP	0.188
RRIRCRPPRLPRPRPRPQQSPRP	-0.0144
RRIRCRPPRLPRPRPRPQRFPRP	-0.0259
RRIRCRPPRLPRPRPRPQRNPRP	-0.0392
